Test results: the supplement of paper PMC10724198
± gives the standard deviation of the averaged measurements.

test system: Saccharomyces cerevisiae; experiment: protein stability index of tFT-peptide fusion (C-terminal peptide) (PSI (0-1 scale)); higher = more stable (slower turnover); conditions: genetic background: wild type; temperature: 30 C
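Also: PSI is a weighted mean of sequencing reads over stability bins, variants kept only with over 10 reads, mCherry proximal and sfGFP distal, peptide attached via GGGS linker.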

RRESTRSRWYEG and RRGAVGAAGLKG are within error of each other in protein stability index: 0.762 ± 0.14 for the first, 0.68884 ± 7e-05 for the second.

First: RRGEVTQTCGCE
Second: RRGKGERSQFAP
The protein stability index of the first is lower: 0.549 ± 0.054 for the first, 0.647 ± 0.017 for the second.

RRLNTRQERSNK and RRLRCNDCPFVV are within error of each other in protein stability index: 0.72 ± 0.032 for the first, 0.755 ± 0.085 for the second.

Compared with RRLSGGNLLLLA, RRLVLPFSRLLR is higher in protein stability index: 0.5914 ± 0.0018 for the first, 0.656 ± 0.019 for the second.

RRNGVVGRLGGV and RRNLSVSKRKWP are within error of each other in protein stability index: 0.678 ± 0.032 for the first, 0.689 ± 0.014 for the second.

Going from RRPPVFCIPLFS to RRPSRLLGPERI, the protein stability index rises from 0.639 ± 0.015 to 0.717 ± 0.025.

RRPTKGGPPTLC and RRQWVLEQEGGT are within error of each other in protein stability index: 0.67 ± 0.032 for the first, 0.732 ± 0.056 for the second.

RRRAINIPNNRL and RRRGRAEREPSS are within error of each other in protein stability index: 0.712 ± 0.016 for the first, 0.689 ± 0.05 for the second.

RRRGSLGGVRGN and RRRSGGVIWNRV are within error of each other in protein stability index: 0.707 ± 0.058 for the first, 0.669 ± 0.009 for the second.

Going from RRRTTTNFKVGH to RRRVTVYAPVDS, the protein stability index rises from 0.672 ± 0.014 to 0.713 ± 0.015.

Going from RRRVWIQQRRKI to RRSLSPPRPRYM, the protein stability index rises from 0.5481 ± 0.0053 to 0.7 ± 0.018.

Going from RRSTRAGWPGNW to RRTEHPRTRAAR, the protein stability index rises from 0.5 ± 0.1 to 0.692 ± 0.045.

RRTGGEDKHARP and RRWCVDLAMSFA are within error of each other in protein stability index: 0.67 ± 0.02 for the first, 0.646 ± 0.016 for the second.

RSCGKAYNLLPL and RSDEGHDVLCLY are within error of each other in protein stability index: 0.683 ± 0.052 for the first, 0.615 ± 0.083 for the second.

RSFVEQQCVTYA and RSGCGVVGVWEE are within error of each other in protein stability index: 0.628 ± 0.11 for the first, 0.668 ± 0.032 for the second.

First: RSGGGVARRSYR
Second: RSGISFGIWVCF
The protein stability index of the first is higher: 0.662 ± 0.013 for the first, 0.586 ± 0.048 for the second.

RSGLVRSLPLLL and RSGVRWGGGGGG are within error of each other in protein stability index: 0.664 ± 0.069 for the first, 0.711 ± 0.035 for the second.

RSGWSYRDRGPS and RSICTEGLDIGC are within error of each other in protein stability index: 0.651 ± 0.082 for the first, 0.659 ± 0.033 for the second.

RSLGLGGRGFWG and RSLPPGFPSTLL are within error of each other in protein stability index: 0.715 ± 0.099 for the first, 0.652 ± 0.014 for the second.

RSMSQKSRIVSF and RSNVGCDLKQTC are within error of each other in protein stability index: 0.67 ± 0.14 for the first, 0.6556 ± 0.0027 for the second.

RSPPAVSLVTIP and RSPPLTPPPCPS are within error of each other in protein stability index: 0.6911 ± 0.0052 for the first, 0.6931 ± 0.005 for the second.

Going from RSPQPPPSPSSG to RSQICWFFFQCI, the protein stability index falls from 0.692 ± 0.027 to 0.53 ± 0.036.

RSRNAHAPPLAG and RSRPPVHVAAAL are within error of each other in protein stability index: 0.764 ± 0.065 for the first, 0.673 ± 0.074 for the second.

Going from RSTFSGSSTLVY to RSTIEHILLFFI, the protein stability index rises from 0.568 ± 0.0084 to 0.668 ± 0.015.

First: RSVGMFSCRPVW
Second: RSWSSIASSSTM
The protein stability index of the first is lower: 0.698 ± 0.017 for the first, 0.7285 ± 0.0037 for the second.

RTAKTSARATTL and RTCRYRRVPAET are within error of each other in protein stability index: 0.705 ± 0.039 for the first, 0.729 ± 0.066 for the second.

RTEATFKTTPVG and RTGTIPAPFHHE are within error of each other in protein stability index: 0.687 ± 0.013 for the first, 0.675 ± 0.0074 for the second.

RTHIKEYKNNKI and RTNGNIKNVNIE are within error of each other in protein stability index: 0.647 ± 0.035 for the first, 0.684 ± 0.07 for the second.

RTNNIAKNSKNR and RTPQPQPVVVRR are within error of each other in protein stability index: 0.713 ± 0.058 for the first, 0.776 ± 0.041 for the second.

Compared with RTPQSPRVSVRN, RTSKSLSKVESW is lower in protein stability index: 0.6586 ± 0.0027 for the first, 0.6415 ± 0.0031 for the second.

RTTERLTRWEFG and RTVRRNPHGRPR are within error of each other in protein stability index: 0.686 ± 0.03 for the first, 0.6832 ± 0.005 for the second.

RTWLLRTVFPRL and RVAWAGGGAAGS are within error of each other in protein stability index: 0.704 ± 0.024 for the first, 0.667 ± 0.065 for the second.

RVEIKNKKKIRT and RVGGGGGPSGVV are within error of each other in protein stability index: 0.696 ± 0.083 for the first, 0.751 ± 0.029 for the second.

Going from RVGGGGWPSGVV to RVGGGSGGEGRG, the protein stability index falls from 0.747 ± 0.047 to 0.6553 ± 0.0043.

Going from RVGLGGRPSGGW to RVGLRGGCGSNG, the protein stability index rises from 0.64 ± 0.047 to 0.725 ± 0.029.

RVHRETLLPTGQ and RVLIPLASSPPL are within error of each other in protein stability index: 0.644 ± 0.036 for the first, 0.77 ± 0.23 for the second.

RVLPASRFSFLF and RVMGWWGARVLG are within error of each other in protein stability index: 0.743 ± 0.036 for the first, 0.697 ± 0.027 for the second.

First: RVNTFHANKWRW
Second: RVPLSPSLRYFV
The protein stability index of the first is higher: 0.7134 ± 0.0013 for the first, 0.653 ± 0.026 for the second.

RVPNLYLRSRKI and RVQELEDGCAAE are within error of each other in protein stability index: 0.68 ± 0.034 for the first, 0.658 ± 0.024 for the second.

Compared with RVRGGAGRGKRE, RVRLAPAPASIR is higher in protein stability index: 0.686 ± 0.032 for the first, 0.7458 ± 0.0047 for the second.

Going from RVRVGGPRESGQ to RVSVYTFVSLSN, the protein stability index falls from 0.7054 ± 0.00082 to 0.619 ± 0.035.

RVSYLLPFCSSV and RVVYANSRVSDN are within error of each other in protein stability index: 0.762 ± 0.11 for the first, 0.6479 ± 0.0055 for the second.

RVWVGGPRESGQ and RVYGSFFYVSLL are within error of each other in protein stability index: 0.72118 ± 0.00022 for the first, 0.66 ± 0.13 for the second.

RWCVGFRLCHDS and RWGPGRSGSRGA are within error of each other in protein stability index: 0.636 ± 0.019 for the first, 0.652 ± 0.022 for the second.

Compared with RWGWGGYRGGVP, RWLGNPLLQRYH is lower in protein stability index: 0.7572 ± 0.0061 for the first, 0.567 ± 0.043 for the second.

First: RWLWRLDNRIVI
Second: RYCSLARSCPSG
The protein stability index of the first is lower: 0.62081 ± 4.7e-05 for the first, 0.678 ± 0.027 for the second.

RYGTGQLDYCFI and RYHQFSFQSNKS are within error of each other in protein stability index: 0.717 ± 0.018 for the first, 0.764 ± 0.072 for the second.

RYKISKKERIKK and RYKTESKRDIEK are within error of each other in protein stability index: 0.663 ± 0.072 for the first, 0.696 ± 0.062 for the second.

First: RYLFAAVSFGYA
Second: RYLTLVTNLLCP
The protein stability index of the first is higher: 0.726 ± 0.032 for the first, 0.647 ± 0.0024 for the second.

RYPLRPLLLPPP and RYRDSKPDIVDC are within error of each other in protein stability index: 0.741 ± 0.16 for the first, 0.723 ± 0.038 for the second.

RYSPPPPPIPSP and RYTQQTTATYHN are within error of each other in protein stability index: 0.715 ± 0.0022 for the first, 0.749 ± 0.079 for the second.

First: RYTTCPVLNPGV
Second: RYWCATHIGACL
The protein stability index of the first is lower: 0.618 ± 0.018 for the first, 0.788 ± 0.093 for the second.

Going from SAFGGAGVLGHR to SAIAVDSPLGRG, the protein stability index falls from 0.6799 ± 0.0027 to 0.653 ± 0.023.

SALGPVLCRGSY and SALSLDNLIHSY are within error of each other in protein stability index: 0.675 ± 0.067 for the first, 0.676 ± 0.071 for the second.

SAPALPCQSPRL and SAPCHAHHLPYQ are within error of each other in protein stability index: 0.696 ± 0.011 for the first, 0.73 ± 0.026 for the second.

SAPPLFPCPSPA and SARPTVNRPARN are within error of each other in protein stability index: 0.68 ± 0.03 for the first, 0.6933 ± 0.0049 for the second.

SARVVCSSCFPM and SAVLLLNAGGLV are within error of each other in protein stability index: 0.668 ± 0.017 for the first, 0.688 ± 0.0071 for the second.

SAVVPACIPKCE and SAWHRGCSCHLC are within error of each other in protein stability index: 0.694 ± 0.035 for the first, 0.682 ± 0.029 for the second.

SAWVGVGHGRVS and SAYQDFTAILLG are within error of each other in protein stability index: 0.6113 ± 0.0056 for the first, 0.703 ± 0.16 for the second.

SCGVTRVGALST and SCGYRGSSAFSF are within error of each other in protein stability index: 0.664 ± 0.013 for the first, 0.62 ± 0.2 for the second.

Going from SCIRATGSNVSP to SCKLSPLGLLLL, the protein stability index falls from 0.664 ± 0.029 to 0.618 ± 0.016.

SCLGGRISSRCG and SCPSLPPPPPCL are within error of each other in protein stability index: 0.69 ± 0.017 for the first, 0.735 ± 0.04 for the second.

Compared with SCQISVRLHVSH, SCQSPSSQEYST is higher in protein stability index: 0.612 ± 0.016 for the first, 0.751 ± 0.056 for the second.

SCRKGLSPRPPS and SCSFPPSPFLCG are within error of each other in protein stability index: 0.7 ± 0.007 for the first, 0.677 ± 0.03 for the second.

SCSLGIRSFFSL and SCTRASSMSLSP are within error of each other in protein stability index: 0.7 ± 0.021 for the first, 0.674 ± 0.024 for the second.

SCVAGSSHWTSI and SCVTLTGLSGDK are within error of each other in protein stability index: 0.712 ± 0.24 for the first, 0.698 ± 0.016 for the second.

SCWHRNRKIILD and SDFGSFRFRSIV are within error of each other in protein stability index: 0.573 ± 0.056 for the first, 0.5773 ± 0.0018 for the second.

SDKVLSSTEIQN and SDNIKIPKEKRK are within error of each other in protein stability index: 0.719 ± 0.039 for the first, 0.668 ± 0.026 for the second.

SEGCASLSGRVG and SEGCPILALVKP are within error of each other in protein stability index: 0.665 ± 0.047 for the first, 0.638 ± 0.035 for the second.

Going from SEHSTYFSRNCF to SEIFTNALLISI, the protein stability index falls from 0.726 ± 0.032 to 0.651 ± 0.026.

SEIKVIMNESKS and SEIRIQTFETGG are within error of each other in protein stability index: 0.679 ± 0.009 for the first, 0.671 ± 0.061 for the second.

SEWFETRNPMSI and SEYPCSDRAEVA are within error of each other in protein stability index: 0.685 ± 0.096 for the first, 0.65 ± 0.017 for the second.

SFASGFFVVKDF and SFCHWHLFPPRS are within error of each other in protein stability index: 0.658 ± 0.031 for the first, 0.711 ± 0.041 for the second.

First: SFFLSFFSPLVL
Second: SFFSPFPSRICS
The protein stability index of the first is lower: 0.63 ± 0.038 for the first, 0.829 ± 0.032 for the second.

SFHIAARFRSLP and SFLFDSPYFVAI are within error of each other in protein stability index: 0.719 ± 0.062 for the first, 0.699 ± 0.018 for the second.

SFLPRVVVRSTP and SFLSMDANDLLS are within error of each other in protein stability index: 0.667 ± 0.015 for the first, 0.7 ± 0.029 for the second.

SFLVPRARPVLL and SFMVISSGSSVR are within error of each other in protein stability index: 0.688 ± 0.041 for the first, 0.725 ± 0.023 for the second.

SFNLFFVVSPAL and SFPRPPSSPSPL are within error of each other in protein stability index: 0.608 ± 0.097 for the first, 0.714 ± 0.021 for the second.

Going from SFRASVSAPCLF to SFRFVLVQCSGV, the protein stability index falls from 0.683 ± 0.067 to 0.5601 ± 0.0046.

SFSFPPHPLKSL and SFVECVDVMGRW are within error of each other in protein stability index: 0.723 ± 0.1 for the first, 0.757 ± 0.056 for the second.
